Measured values reported in patent US5948643, “Modulators of BRCA1 activity” (Onyx Pharmaceuticals, Inc., dated 1999).

What was measured:
[1] = target: BRCA1 (1-600) fused to the GAL4 binding domain (human); assay: yeast two-hybrid (Example 3)
Experimental: (§1) Two hybrid experiments were conducted to ascertain the regions of the BRCA1 Modulator 091-21A31, Sequence ID No. 1 that interact with BRCA1. The assay was run essentially as described in Example 1. Transformation and growth of yeast cultures were performed essentially as described in U.S. Pat. No. 5,283,173; Chien et al., 1991, Proc. Natl. Acad. Sci. USA, 88: 9578–9582; or Spaargaren, M., et al., (1994) Biochem. J. 300, 303–307.

[2] = target: BRCA1 (1-300) fused to the GAL4 binding domain (human); assay: yeast two-hybrid (Example 3)
Experimental: as §1

[3] = target: T1, vector control (GAL4 binding domain vector without insert) (Saccharomyces cerevisiae (strain ATCC …, UniProt P04386)); assay: yeast two-hybrid (Example 3); vector control
Experimental: as §1

[4] = target: GAL4-BRCA1 (8-1293): BRCA1 amino acids 8-1293 fused to the GAL4 binding domain (human); assay: yeast two-hybrid (Example 3)
Experimental: as §1

[5] = target: T1, vector control (GAL4 binding domain …); assay: yeast two-hybrid, b-galactosidase; vector control
Experimental: (§2) The experiment was conducted using the two-hybrid assay as described in U.S. Pat. No. 5,283,173, or Chien et al., 1991, Proc. Natl. Acad. Sci. USA, 88: 9578–9582. The cDNAs that encode 091-1F84, Sequence ID No. 3, 091-21A31, Sequence ID No. 1 and 091-132Q20, Sequence ID No. 5 were fused to the GAL 4 activation domain, and those regions of BRCA1 shown in the table were fused to the binding domain of GAL4. The "+" sign is a subjective measure of the amount of b-galactosidase activity. One "+" being the lowest, and three "+++" being the highest activity.
(§3) Experiments were conducted to ascertain which regions of BRCA1 interact with the three BRCA1 Modulators described in Example 1. The experiment was conducted using the two-hybrid assay as described in U.S. Pat. No. 5,283,173, or Chien et al., 1991, Proc. Natl. Acad. Sci. USA, 88: 9578–9582. The cDNA that encodes the 091-1F84, Sequence ID No. 3, 091-21A31, Sequence ID No. 1, and 091-132Q20, Sequence ID No. 5 was fused to the GAL4 activation domain, and those regions of BRCA1 shown in Table 1 and that contain BRCA1 amino acids 1–300, 1–600, or 8–1293 were fused to the binding domain of GAL4. Controls consisted of the vector, or bcl2 fused to the GAL4 binding domain (See, U.S. Pat. 5,539,085).

[6] = target: BRCA1 (1-300) fused to the GAL4 binding domain (human); assay: yeast two-hybrid, b-galactosidase
Experimental: as §2, §3

Binder	binding result [1]	binding result [2]	binding result [3]	binding result [4]	binding result [5]	binding result [6]
091-21A31, Sequence ID No. 1 fragment containing amino acids 1-300 fused to the GAL4 activation domain (other) MPIRALCTICSDFFDHSRDVAAIHCGHTFHLQCLIQWFETAPSRTCPQCRIQVGKRTIINKLFFDLAQEEENVLDAEFLKNELDNVRAQLSQKDKEKRDSQVIIDTLRDTLEERNATVVSLQQALGKAEMLCSTLKKQMKYLEQQQDETKQAQEEARRLRSKMKTMEQIELLLQSQRPEVEEMIRDMGVGQSAVEQLAVYCVSLKKEYENLKEARKASGEVADKLRKDLFSSRSKLQTVYSELDQAKLELKSAQKDLQSADKEIMSLKKKLTMLQETLNLPPVASETVDRLVLESPAPVE	no binding	no binding	no binding			
091-21A31, Sequence ID No. 1 fragment containing amino acids 300-469 fused to the GAL4 activation domain (other) EVNLKLRRPSFRDDIDLNATFDVDTPPARPSSSQHGYYEKLCLEKSHSPIQDVPKKICKGPRKESQLSLGGQSCAGEPDEELVGAFPIFVRNAILGQKQPKRPRSESSCSKDVVRTGFDGLGGRTKFIQPTDTVMIRPLPVKPKTKVKQRVRVKTVPSLFQAKLDTFLWS	no binding	no binding	no binding	no binding		
091-21A31, Sequence ID No. 1 fragment containing amino acids 78-469 fused to the GAL4 activation domain (other) FLKNELDNVRAQLSQKDKEKRDSQVIIDTLRDTLEERNATVVSLQQALGKAEMLCSTLKKQMKYLEQQQDETKQAQEEARRLRSKMKTMEQIELLLQSQRPEVEEMIRDMGVGQSAVEQLAVYCVSLKKEYENLKEARKASGEVADKLRKDLFSSRSKLQTVYSELDQAKLELKSAQKDLQSADKEIMSLKKKLTMLQETLNLPPVASETVDRLVLESPAPVEVNLKLRRPSFRDDIDLNATFDVDTPPARPSSSQHGYYEKLCLEKSHSPIQDVPKKICKGPRKESQLSLGGQSCAGEPDEELVGAFPIFVRNAILGQKQPKRPRSESSCSKDVVRTGFDGLGGRTKFIQPTDTVMIRPLPVKPKTKVKQRVRVKTVPSLFQAKLDTFLWS		no binding	no binding			
BRCA1 Modulator Protein 091-1F84, Sequence ID No. 3, fused to the GAL4 activation domain (other) ARESLSLPSMLRDAAIGTTPFSTCSVGTWFTPSAPQEKSTNTSQTGLVGTKHSTSETEQLLCGRPPDLTALSRHDLEDNLLSSLVILEVLSRQLRDWKSQLAVPHPETQDSSTQTDTSHSGITNKLQHLKESHEMGQALQQARNVMQSWVLISKELISLLHLSLLHLEEDKTTVSQESRRAETLVCCCFDLLKKLRAKLQSLKAEREEARHREEMALRGKDAAEIVLEAFCAHASQRISQLEQDLASMREFRGLLKDAQTQLVGLHAKQEELVQQTVSLTSTLQQDWRSMQLDYTTWTALLSRSRQLTEKLTVKSQQALQERDVAIEEKQEVSRVLEQVSAQLEECKGQTEQLELENSRLATDLRAQLQILANMDSQLKELQSQHTHCAQDLAMKDELFCQLTQSNEEQAAQWQKEEMALKHMQAELQQQQAVLAKEVRDLKETLEFADQENQVAHLELGQVECQLKTTLEVLRERSLQCENLKDTVENLTAKLASTIADNQEQDLEKTRQYSQKLRLLTEQLQSLTLFLQTKLKEKTEQETLLLSTACPPTQEHPLPNDRTFLGSILTAVADEEPESTPVPLLGSDKSAFTRVASMVSLQPAETPGMEESLAEMSIMTTELQSLCSLLQESKEEAIRTLQRKICELQVRLQAQEEQHQEVQKAKEADIEKLNQALCLRYKNEKELQEVIQQQNEKILEQIDKSGELISLREEVTHLTRSLRRAETETKVLQEALAGQLDSNCQPMATNWIQEKVWLSQEVDKLRVMFLEMKNEKEKLMIKFQSHRNILEENLRRSDKELEKLDDIVQHIYKTLLSIPEVVRGCRELQGLLEFLS					no binding	no binding
BRCA1 Modulator Protein 091-21A31, Sequence ID No. 1, fused to the GAL4 activation domain (other) MPIRALCTICSDFFDHSRDVAAIHCGHTFHLQCLIQWFETAPSRTCPQCRIQVGKRTIINKLFFDLAQEEENVLDAEFLKNELDNVRAQLSQKDKEKRDSQVIIDTLRDTLEERNATVVSLQQALGKAEMLCSTLKKQMKYLEQQQDETKQAQEEARRLRSKMKTMEQIELLLQSQRPEVEEMIRDMGVGQSAVEQLAVYCVSLKKEYENLKEARKASGEVADKLRKDLFSSRSKLQTVYSELDQAKLELKSAQKDLQSADKEIMSLKKKLTMLQETLNLPPVASETVDRLVLESPAPVEVNLKLRRPSFRDDIDLNATFDVDTPPARPSSSQHGYYEKLCLEKSHSPIQDVPKKICKGPRKESQLSLGGQSCAGEPDEELVGAFPIFVRNAILGQKQPKRPRSESSCSKDVVRTGFDGLGGRTKFIQPTDTVMIRPLPVKPKTKVKQRVRVKTVPSLFQAKLDTFLWS					no binding	no binding
BRCA1 Modulator Protein 091-132Q20, Sequence ID No. 5, fused to the GAL4 activation domain (other) ARGGAEEATEAGRGGRRRSPRQKFEIGTMEEAGICGLGVKADMLCNSQSNDILQHQGSNCGGTSNKHSLEEDEGSDFITENRNLVSPAYCTQESREEIPGGEARTDPPDGQQDSECNRNKEKTLGKEVLLLMQALNTLSTPEEKLAALCKKYADLLEESRSVQKQMKILQKKQAQIVKEKVHLQSEHSKAILARSKLESLCRELQRHNKTLKEENMQQAREEEERRIEATAHFQITLNEIQAQLEQHDIHNAKLRQENIELGEKLKKLIEQYALREEHIDKVFKHKELQQQLVDAKLQQTTQLIKEADEKHQREREFLLKEATESRHKYEQMKQQEVQLKQQLSLYMDKFEEFQTTMAKSNELFTTFRQEMEKMTKKIKKKKKKLE					no binding	no binding
